Assay results from publication PMC6138654.

Molecular target: αβ-tubulin (tubulin dimer; as free tubulin, Tau-induced microtubules or Taxol-stabilized microtubules) (lamb (purified from lamb brains))

Sequence of Tau F4 fragment labeled with MTSL (F4^MTSL) (P10636 525-641): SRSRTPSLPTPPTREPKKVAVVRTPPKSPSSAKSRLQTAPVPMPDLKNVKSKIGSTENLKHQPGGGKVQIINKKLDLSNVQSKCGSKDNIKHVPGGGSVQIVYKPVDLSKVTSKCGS

Tau F4 fragment labeled with MTSL (F4^MTSL) (from UniProt P10636-8 208-324) (domain or fragment)
k of MTSL label release (thiol-disulfide exchange) by EPR, h(−1)/h(0) against time; Induced-MTs, 10 µM labeled protein, 1:2 with tubulin, 37 °C: 0.217 min⁻¹ | k of MTSL label release (thiol-disulfide exchange) by EPR, h(−1)/h(0) against time; Taxol-MTs, 10 µM labeled protein, 1:2 with tubulin, 37 °C: 0.025 min⁻¹

Tau F4 fragment C291S mutant labeled with MTSL on C322 (C322^MTSL) (from UniProt P10636-8 208-324) (domain or fragment)
k of MTSL label release (thiol-disulfide exchange) by EPR, h(−1)/h(0) against time; Tau-MTs (induced), 10 µM labeled protein, 1:2 with tubulin, 37 °C: 0.077 min⁻¹

Tau F4 fragment C322S mutant labeled with MTSL on C291 (C291^MTSL) (from UniProt P10636-8 208-324) (domain or fragment)
k of MTSL label release (thiol-disulfide exchange) by EPR, h(−1)/h(0) against time; Tau-MTs (induced), 10 µM labeled protein, 1:2 with tubulin, 37 °C: 0.127 min⁻¹
